Test results reported in the nanobody polyreactivity screen of Harvey et al. (2022).

Assay: yeast display, Sf9 membrane polyspecificity reagent, FACS + sequencing; frameworks hold sequencing errors
Procedure, shortened: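 Galactose-induced (36–48 hours) yeast carrying a synthetic nanobody display library were exposed to 10% biotinylated, detergent-solubilized Sf9 membrane reagent at 4 °C for 1 hour. FACS followed streptavidin microbead enrichment, using low and high (top ~1%) gates for expression (anti-HA) and reagent binding (streptavidin). Colony PCR, MiSeq 2 × 250 sequencing and CDR-length filtering followed. Labels for polyreactivity reflect the gate of origin.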

Row | Sequence | polyreactivity (PSR sort gate)
1 | QVQLVESGGGLVQAGGSLRLSCAASGFTFALNAMGWYRQAPGKERELVAAISSRGGSTYYADSVKGRFTISRDNAKNTVYLQMNSLKPEDTAGYYCAKDYKADSRFSPYGYWGQGTQVTVSS | high polyreactivity
2 | QVQLVESGGGLVQAGGSLRLSCAASGFTFIRNAMGWYRQAPGKDRELVAAISRSGGSTYYADSVKGRFTISRDNAKYTVYLQMNSLKPEDTAVYYCPVTLYLKWQGGAYDYWGQGTQVTVSS | low polyreactivity
3 | QVQLVESGGGLVQAGGTLRLSCAASGSTFWRNTMEWYRQAPGKERELVAAITGCGGRTYYADSVKGRFTISRDNAKNTVYLQMNSLKPEDTAVYYCAADGRGVHYDYWGQGSQVTVSS | high polyreactivity
4 | QVQLVESGGGLVQAGGSLRLSCADSGRIFRGNTMGWYRQAPGKERELVATINGRGGSTYYADSVKGRFTISRDNAKNTLYLQMNSLKPEDTAVYYCAARARTTRSATYDYWGQGTQVTVSS | high polyreactivity
5 | QVQLVESGGGLVQAGGSLRLSCGASGSTFYGYAMGWYRQAPGTEREVVAAISSGGSTYYADSVKGRFTISRDNAKNTVYLQMNSLKPEDTAVYYCDAVGYFWITNHKDYYWGQGTQVTVSS | high polyreactivity
6 | QVQLVESGGGLVQAGGSLRLSCAASGLIFLYYAMGWYRQAPGKERELVAAISRRGGSTYYADSVKGRFTISRDNAKNTVYLQMNSLKPEDTAVYYCAAKYESYPGGIWTYYYWGQGTQVTVSS | high polyreactivity
7 | QVQLVESAGGLVQAGGSLRLSCAASGSTFTSYAMGWYRQAPGKERELVDAITRNGGTTYYADSVKGRFTISRDNAKNTVYLQMNSLKPEDTAVYYCNAPHYYYITSDRRFDYWGQGTQVTVSS | low polyreactivity
8 | QVQLVESGGGIVQAGGSLRLSCAASGRTFQLYAMGWYRQAPGKERELVAAITRGGSTKYADSVKGRFTISRDNAKNTVYLQMNSLKPEDTAVDYCAAKFSSYWSRFGYWGQGTQVTVSS | high polyreactivity
9 | QVQLVESGGGLVQAGGSLRLSCAASGRISNDYAMGWYRQAPGKVRELVATITFSGGDTYYADSVKGRFTISRDNAKNTVYLQMNSLKPEDTSVYYCAASKWRSYSGGWWRLLFDYWGQGTQVTVSS | low polyreactivity
10 | QVQLVESGGGLVQAGGSLRLSCAASGSTFVWYAMGRYRLAPGKERELVAVIDWSGGSTSYADSVKGRFTISRDNAKNTVYLQMNSLKPEDTAVYYCNKGSSLFHWYYHWGQGTQVTVSS | low polyreactivity
11 | QVQLEESGGGIVQAGGSLRLSCAASGRIFPYYAMGWYRQAPGKERALVAVISYSSGITYADSVKGRFTISRDNAKNTVYLQMNSLKPEDTAVYYCAADKWAFGATQYDYWGKGTQVTVSS | low polyreactivity
12 | QVQLVESGGGLVQAGGSLRLSCAASGSTFRRYAMGWYRQAPGKERELVAAITWRGGSTYYADSVKGRFTISRDNAKNTVFLQMNSLKPEDTAVYYCATSDYYYDYWGQGTQVTVSS | high polyreactivity
13 | QLQLVESGGGLVQAGGSLRLSCAASGSTFPEYVMGWYRQAPAKERELVAAITRRGGRTYYADSVKGRFTISRDNAKNTVYFQMNSLKPEDTAVYYCAAKSAVVVGMDSWGQGTQVTVSS | high polyreactivity
14 | QDQLVESGGGLVQAGGSLRLSCDASGSTFYRYDMGRSRQAPGKERELFAAINQSGDSTYYADSVKGRFTISRDKAKNTVYLQMNSLKPEDTAVYYCAAVRSRYLAFYYWGQCTQVTVSS | low polyreactivity
15 | QLQLVESCGGLVQAGGSLRLSCAASGSILLNNAMGWYRQAPGKERELVAAISLSGGGSTYYADSVKGRFTLSRDNAKNTVYLQMNSLIPEDTAVYYCNADDPYLYYDSYDYWGQGTQVTVSS | low polyreactivity
16 | HVQLVESGGGLVQAGGSLRLSCAASGSIFRGNAMGWYRQAPGKERELVAAISKSGGSTYYADSVKGRFTISRDNAKNTVFVQMNSLKPEDTAVYYCAARTTYLYGMYYWGQGTQVTVSS | low polyreactivity
17 | QVQLVESGGGLVQAGGSLRLSCAASGRILYVNAMGWYRQAPGKERELVAAISWRGGRTYYADSVKGRFTISRDHAKNTVYLQMNSLKPEDTAVYYCAARARGGYQRDYWGQGTQVTVSS | high polyreactivity
18 | QVQLVESGGGLVQAGGSLRLSCAASGFIFLLYDMGWYRQAPGKERELVAAITSDGTTNYADSVKGRFTISRDNAKNTVYLQMNSLKPEDTAVYYCAADGFTRWGRYDYWGQGTQVTVSS | high polyreactivity
19 | QVQLVESGGGLVQAGGSLRLSCAASGSIFYDNAMGWYRQAPGKERELVAAITIDGSTYADSVKGRFTISRDNAKYTVYLQMNSLKPEDTAVYYCAAEWDTNFWYDYWGQGTQVTVSS | low polyreactivity
20 | QDQLVESGGGLVQAGGSLRLSCAASGRIVSDYAMGWYRQAPGKERELVARISRSDGSSYYADSVKGRFTISRDNAKNTVYLQMNSLKPEDTAVYYCAAQWTDGRRDHWWDKGFYYWGQGTQVTVSS | low polyreactivity
21 | QVQLVESGGGLVQAGGSLRLSCAASGLIFWVYTMGWYRQAPGKERELVASISWNGGSTYYADSVKGRFTISRDNAKNTVYLQMNSLKPEDTAVYYCAAGARYVQRDYWGQGTQVTVSS | low polyreactivity

Row | Sequence | polyreactivity (PSR sort gate)
22 | QVQLVESGGGLVQAGGSLRLSCAASGSTDSNAMGWNRQAPGKEREMVAPISGTGSRTYYADSVKGRFTISRDNAKNTVYFQLNSLKTEDTAVYYCNKDVYGYSRTGPRGYDYWGQGTQVTVSS | high polyreactivity
23 | QVLLVESGGGLVQAGGSLRLSCAASGFIFYLNGMGWYRQAPGKERELVAAISGRGGRTYYADSVKGRFTISRDNAKNTVYLQMNSLIPEDTAVYYCAAQYVPSRYGYWGQGTQVTVSS | high polyreactivity
24 | QVQLVESRGGLVQAGGSLRLSCAASGITSRFYVMGWYRKAPGKERELVAAISTRGTSTYYADSVKGRFTLSRDNAKNTVYLQMNSLKPEDTAVYYCAAVGGYPYQYPYGSWGQGTQVTVSS | high polyreactivity
25 | QVQLVESGGGLVQAGGSLRLSCAASGSIFSYNGMGWYRQAPGKEREFVAAITWRGGSTYYADSVKGRFTISRDNAMNTVYLQMNSLKPEDTAVYYCARRPGYALTWRVSGRYDYWGQGTQVTVSS | high polyreactivity
26 | QVQLVESGGGLVQAGGILRLSCAASGLTFEQYAMGWYRQAPGKERELVAAISWSGGRTYYADSVKGRFTISRDNAKNTVYLQMNSLKPEDTAVYYCAKDRGCPFYWRYPLGYWGQGTQVTVSS | high polyreactivity
27 | QVQLVESGGGLVQAGGSLRLSCAASGYIFYYNTMGWYRQAPGKERELVAAISATGGRTYYADSVKGRFTISRDNAKNTVYLQMNSLKPEDTAVYYCAKRGISPYGYWGQGTQVTVSS | high polyreactivity
28 | QVHLVESGGGLVHAGGSLRLSCAASGSTFYPYAMGWYRQAPGKERELVAAISISGTTYYADSVKGRFTISRDNAKNTVYLQMNCLKPEDTAVYYCAKRAWVRRYPGRVGYNMYYWGQGTQVSVSS | high polyreactivity
29 | QVQLVESGGGLVQAGGSLRLSCAASGSTFEYYAMGWYRQAPGKERELVAAITRRGGSTYYADSVKGRFTISRDNAKNTVYLQMNSLKPEDTAVYYCAAVPTQKSPRTHDYWGQGTQVTVSS | low polyreactivity
30 | QVQRLESRGGLVQAGGSLRLSCAASGSTFDYNAMGWYRQAPGKERELVAAITSSGGSTYYADSVKGRFTISRDNAKNNVYLQMHSLKPEDTAVYYCNADGYVPDYEYWGQGTQVTVSS | high polyreactivity
31 | QVQLVESGGGLVQAGGSLRLICAASGIILVYYDMGWYRQAPGKEMELVDTISRGGSTNYADSVMGRFTISRDNAKNTVYLQMISLKPEDTAVNYCAAGSYSIWVHLVRYYYWGQGTQVTVSS | high polyreactivity
32 | QVQLVESGGGLVQAGGSLRLSCAASGRTFQTYARGWYRQAPGKERELVAAISKSGGGTYYADSVKGRFTISRDNAKNTVYLQMNSLKPEDTAVYYCATAGYHYRAWGGRYDYWGQGTQVTVSS | high polyreactivity
33 | QVQLVESGGGLVQAGGSLRLSCAASGSIFYFNAMGWYRQAPGKERELVAAITYSGGSTYYADSVKGRFTISRDNAKNTVYLQMNSLKPEDTAVYYCAAERRTFPLRNFDYWGQGTQVTVLS | low polyreactivity
34 | QVQHVASGGGLVQAGGSLRLSCAASGNIFRYYTMGWYRQAPGKERELVATISYADSVKGRFTISRDNAKNTVYLQMNSLKPEDTAVYYWNAVFAPWDKQDYPYDYDYWGQGTQVTVSS | low polyreactivity
35 | QVQLVESGGGLVQAGGSLRISCAASGYIFFGNAMGWYRQAPGKERELVAAIRGRGTSTYYADSVKGRFTISRDNAKNTVYLQMNSLKPEDTAVYYFAADVVRSNFYGTFLYDYDYWGQCTQVTVSS | low polyreactivity
36 | QVQLVESGGGLVQAGGSLRLSCAASGSIYNRYAMGSYRQAPRQERELVAAITQSTDSTYYADSVKGRITISRDNAMITVYLQMNSLKPEDTAVYYCAAYLVYYRPYAYGYWGQGTQVTVSS | low polyreactivity
37 | QVQLVESGGGLVQAGGSLRLSCAASGRTFLAYAMGWYRQAPGKERELVAAISSSGSTTYYADSVKGRFTISRDNAKNTVYLQMNSLKPEDTAVYYCAASNGYRSSYYRYDYWGQGTQVTVSS | low polyreactivity
38 | QVQLVESGGGLVQAGGSLRLSCAASGRIFSAYAMGWYRQAPGKERELVAVISSADSTNYADSVKGRFTITRDNAKNTVYLQINSLKPEDNAVYYCNARGKHRYGFRSHVGNEYWGQGTQVTVSS | low polyreactivity
39 | QVQLVESGGGLVQAGGSLRLSCAASGLIFYWYAMGWYRQAPGKEREFVAAISYGGTTTSYADSVKGRFTISRDNAKNTVYLQMNSLKPEDTAVYYCAAEESTSSWSINDYWGQGTQVTVSS | low polyreactivity
40 | QVQLVESGGGLVNAGGSLRLSCAASGRTFRNYAMGWYRQAPGKERELVAANSSGGSTNYADSVKGRFTISRDNAKNTVYLQMNSLKPEDTAVYFCAARQRAYYGPGFDYWGQGTQVTVSS | low polyreactivity
41 | QVQLVESGGGLVQAGGSLRLSCAASGRTFGPNVIGWYRQAPGKERELVAAITSGGTTYYADSVKGRFTISRDNAKNTVYLQMNSLKPEDTAVYYCNARYVYHSSFAGFDYWGQGTQVTVSS | low polyreactivity
